Results: publication PMC11615320 (Communications Biology, 2024)
Numbering of substitutions follows the chain as printed. Names may count otherwise.

B1: cytosolic domain of Synaptotagmin-1 (Syt-1), residues 79 to 421, wild type (domain or fragment, rat, UniProt P21707 79-421, looked up)
chain: CKKSLFKKKNKKKGKEKGGKNAINMKDVKDLGKTMKDQALKDDDAETGLTDGEEKEEPKEEEKLGKLQYSLDYDFQNNQLLVGIIQAAELPALDMGGTSDPYVKVFLLPDKKKKFETKVHRKTLNPVFNEQFTFKVPYSELGGKTLVMAVYDFDRFSKHDIIGEFKVPMNTVDFGHVTEEWRDLQSAEKEEQEKLGDIAFSLRYVPTAGKLTVVILEAKNLKKMDVGGLSDPYVKIHLMQNGKRLKKKKTTIKKNTLNPYYNESFSFEVPFEQIQKVQVVVTVLDYDKIGKNDAIGKVFVGYNSTGAELRHWSDMLANPRRPIAQWHTLQVEEEVDAMLAVKK
modifications: AlexaFluor 647 maleimide or AlexaFluor 488 maleimide on Cys79
B2: cytosolic domain (residues 79 to 421) of the Syt-1 F349A mutant (domain or fragment, rat, UniProt P21707 79-421, looked up)
chain: B1 chain with F271A
modifications: AlexaFluor 647 maleimide or AlexaFluor 488 maleimide on Cys79

Legend:
[1] = biological target: the molecule itself; assay: single-molecule TIRF microscopy, kinetics
[2] = biological target: the molecule itself; assay: single-molecule TIRF microscopy with step-photobleaching and intensity counting
[3] = biological target: the molecule itself; assay: single-molecule TIRF microscopy, real-time dissociation

Row | Protein | KD of the large clusters [1] | KD of the small clusters [1] | stoichiometry N [2] | koff [3] | Kd [1]
1 | B1 | 6 ± 2 nM | 40 ± 8 nM | 5 ± 2 copies | 0.0024 ± 0.0004 s⁻¹ | –
2 | B2 | – | – | – | 0.0017 ± 0.0003 s⁻¹ | 45 ± 15 nM
